Biological target: T1, ASIC1a (Homo sapiens, UniProt P78348)
T1 construct: expressed in transfected cells
T1 sequence (P78348 1-528): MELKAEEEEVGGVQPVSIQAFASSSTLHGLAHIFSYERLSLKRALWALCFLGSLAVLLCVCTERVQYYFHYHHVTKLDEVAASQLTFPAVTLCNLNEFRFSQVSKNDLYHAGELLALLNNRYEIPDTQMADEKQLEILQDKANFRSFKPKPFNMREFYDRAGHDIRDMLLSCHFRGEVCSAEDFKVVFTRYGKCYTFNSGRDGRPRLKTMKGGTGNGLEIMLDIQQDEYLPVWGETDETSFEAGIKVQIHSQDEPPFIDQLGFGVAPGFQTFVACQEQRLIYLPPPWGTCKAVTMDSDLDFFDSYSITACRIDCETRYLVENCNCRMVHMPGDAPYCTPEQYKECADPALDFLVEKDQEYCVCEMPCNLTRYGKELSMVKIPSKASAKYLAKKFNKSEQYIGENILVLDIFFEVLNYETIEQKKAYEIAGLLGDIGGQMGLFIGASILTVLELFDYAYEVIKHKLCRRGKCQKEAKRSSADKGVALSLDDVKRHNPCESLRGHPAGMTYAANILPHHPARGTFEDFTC
Experiment: FLIPR-based fluorescent membrane potential (FMP) assay
Format: cell-based
Settings: increasing doses, pH 6
Text: A fluorescence-based assay using the FLIPR Membrane Potential Assay Kit (FMP kit) (Molecular Devices) was used for functional characterization of ASC06-IgG1 and the affinity-matured derivatives thereof. Specifically, the role of ASIC1a in acidosis and the effect of the antibodies of current disclosure was probed further. The FMP dye in the kit is a lipophilic, anionic, bis-oxonol dye, which permits a sensitive evaluation of changes in membrane potential with a more rapid response time. Using the FMP kit, a sensitive cell-based assay to detect acid-induced ASIC1a currents was developed using a cell line stably expressing ASIC1a. The ASIC1a-expressing stable cells were seeded in 96-well plates. The cells were treated with different concentrations of ASC06-IgG1. Untreated cells were used as a negative control. ASIC1a was stimulated by inducing acidosis by decreasing the extracellular pH to 6, and the changes in the fluorescent signal of the FMP dye were measured. An isotype control was used as a negative control for binding. […] The assay was applied to detect the efficiency of inhibition of ASIC1a currents by ASC06-IgG1, and affinity-matured derivatives thereof.
Using similar assays, the IC50 values for inhibition of ASIC1a currents were calculated based on the maximal fluorescent intensity of each concentration of antibodies compared to the negative control.

B1: ASC06-IgG1: parental (WT) ASIC1a-specific antagonist antibody; VL SEQ ID NO: 2, VH SEQ ID NO: 7, VH-CDR3 DSFYGYSKGD (antibody, V domains shown)
VH: QVQLQQSGGGLVQPGGSLRLSCAASGFTFSSYAMSWVRQAPGKGLEWVSAISGSGGSTYYADSVKGRFTISRDNSKNTLYLQMNSLRAEDTAVYYCAKDSFYGYSKGDWGQGTLVTVSS
VL: QSALTQPASVSGSPGQSITISCTGTSSDVGAYNYVSWYQQQPGKAPKLMIYGVSNRPSGVSNRFSGSKSGNAASLTISGLQAEDEADYYCSSYTSSSTYVFGTGTKLTVLG
modifications: IgG1 constant regions; Amino acid sequence VH of ASC06; Amino acid sequence VL of ASC06
- inhibition of the fluorescent intensities (ASIC1a-mediated current): dose-dependent inhibition

From patent US20230174642A1, “AFFINITY-MATURATED ANTI-ASIC1a ANTIBODIES” (SHANGHAITECH UNIVERSITY, priority 2019, published 2023)
